Drawing on patent US20110123543A1, this text covers Ka and neutralizing titre: concentration required to cause 50% inhibition of killing of WEHI 164 cells by trimeric recombinant murine TNFα (60 pg/ml mouse TNFα) for three substances.

For test [1], the target named is recombinant human TNFα (rhTNF, Dainippon, Osaka, Japan) (human) (UniProt P01375). Kind of test: Scatchard analysis; direct binding of 125I-labelled antibody to rhTNFα immobilized in a 96-well plate.
For test [2], the target named is recombinant mouse TNFα (mouse) (UniProt P06804). Nature of the test: cell-based or functional assay.
Sequence of UniProt P06804 (P06804 80-235 limits assumed): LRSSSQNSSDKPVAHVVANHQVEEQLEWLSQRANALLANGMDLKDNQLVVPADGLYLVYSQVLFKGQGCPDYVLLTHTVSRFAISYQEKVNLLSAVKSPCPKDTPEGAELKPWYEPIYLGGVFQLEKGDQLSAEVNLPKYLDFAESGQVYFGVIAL

Sequence of UniProt P01375 (P01375 77-233 limits assumed): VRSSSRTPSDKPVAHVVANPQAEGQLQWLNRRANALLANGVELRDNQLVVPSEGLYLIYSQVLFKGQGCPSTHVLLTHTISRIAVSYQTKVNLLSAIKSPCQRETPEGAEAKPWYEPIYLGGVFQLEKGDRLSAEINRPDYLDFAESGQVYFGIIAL

As for “chimeric A2 (cA2), chimeric monoclonal anti-TNF antibody”, the Ka in test [1] amounted to 1.8e+09 M⁻¹. On to “TNF receptor/IgG fusion protein p55-sf2 (from UniProt P19438 30-211; P01857 1-330) (Fc fusion)”, for which the neutralizing titre: concentration required to cause 50% inhibition of killing of WEHI 164 cells by trimeric recombinant murine TNFα (60 pg/ml mouse TNFα) in test [2] turned out to be 0.6 ng/mL.

On to “TN3-19.12, neutralizing hamster IgG1 anti-TNFα/β monoclonal antibody”, for which, in test [2], the neutralizing titre: concentration required to cause 50% inhibition of killing of WEHI 164 cells by trimeric recombinant murine TNFα (60 pg/ml mouse TNFα) was 62 ng/mL.
